Measurements from publication PMC8660799, “Cryo-EM reveals unique structural features of the FhuCDB Escherichia coli ferrichrome importer” (Communications Biology, 2021).

Key:
[1] = molecular target: T1, FhuCB wild-type (Escherichia coli, UniProt P07821 1-265; P06972 1-660, red-tris-NTA 2nd generation dye on the His-tag); test: MST; 40 nM FhuCB in detergent, His-tag labelled with red-tris-NTA 2nd generation dye; serial dilution of 30 μM FhuD without substrate; with ATP-MgCl2; Monolith NT.115pico, 20% LED power, medium MST power; conditions: both partners purified
T1 construct: FhuC, ATPase subunit, Escherichia coli; whole operon cloned from the genome, FhuD gene deleted; thrombin site after the His-tag; FhuB, membrane subunit, Escherichia coli, 660 residues; also called FhuCB subcomplex; source: E. coli BL21(DE3) C43, purified (TALON, Superose 6 gel filtration) in LMNG; not shown: His-tag, N-terminal, kept; copies: 2 + 1
T1 sequence (looked up) 1: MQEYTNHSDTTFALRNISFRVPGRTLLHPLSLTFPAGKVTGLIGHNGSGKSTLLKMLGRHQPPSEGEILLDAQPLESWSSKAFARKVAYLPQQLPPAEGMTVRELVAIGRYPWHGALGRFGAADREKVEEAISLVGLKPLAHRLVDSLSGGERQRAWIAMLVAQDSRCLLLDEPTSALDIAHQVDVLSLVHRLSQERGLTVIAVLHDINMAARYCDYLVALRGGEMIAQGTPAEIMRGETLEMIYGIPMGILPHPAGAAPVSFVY
T1 sequence (looked up) 2: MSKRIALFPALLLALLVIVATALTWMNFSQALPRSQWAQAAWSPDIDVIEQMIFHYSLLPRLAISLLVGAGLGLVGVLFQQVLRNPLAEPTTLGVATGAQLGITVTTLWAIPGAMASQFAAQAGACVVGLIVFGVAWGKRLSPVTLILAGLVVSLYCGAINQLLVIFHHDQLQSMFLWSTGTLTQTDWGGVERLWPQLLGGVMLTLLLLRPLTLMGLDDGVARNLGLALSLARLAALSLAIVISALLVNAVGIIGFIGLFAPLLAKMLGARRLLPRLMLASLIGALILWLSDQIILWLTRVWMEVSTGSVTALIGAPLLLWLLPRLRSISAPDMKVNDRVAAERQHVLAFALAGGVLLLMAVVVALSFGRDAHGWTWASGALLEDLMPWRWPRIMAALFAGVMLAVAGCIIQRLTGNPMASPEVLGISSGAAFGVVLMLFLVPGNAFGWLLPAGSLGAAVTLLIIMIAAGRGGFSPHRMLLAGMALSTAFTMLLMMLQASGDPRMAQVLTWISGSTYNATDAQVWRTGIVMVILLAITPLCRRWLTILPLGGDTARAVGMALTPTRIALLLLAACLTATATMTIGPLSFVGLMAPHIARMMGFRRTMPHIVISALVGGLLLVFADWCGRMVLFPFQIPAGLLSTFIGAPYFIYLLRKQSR

[2] = molecular target: T2, FhuCB with FhuB Q507A, T510A (Escherichia coli, UniProt P07821 1-265; P06972 1-660, Q507A | T510A, red-tris-NTA 2nd generation dye on the His-tag); test: MST; 40 nM FhuCB (wild type or FhuB mutant) in detergent, His-tag labelled with red-tris-NTA 2nd generation dye; serial dilution of 1.6 μM FhuD with substrate ferrichrome; with ATP-Mg; Monolith NT.115pico, 20% LED power, medium MST power; conditions: both partners purified
T2 construct: FhuC, ATPase subunit, Escherichia coli; as in Dm2; FhuB, membrane subunit, Escherichia coli, 660 residues; Mutant made on the FhuCB-pET15b construct by direct mutagenesis; also called Q507T510; source: E. coli BL21(DE3) C43, purified (TALON, Superose 6 gel filtration) in LMNG; not shown: His-tag, N-terminal, kept; copies: 2 + 1
T2 sequence (looked up) 1: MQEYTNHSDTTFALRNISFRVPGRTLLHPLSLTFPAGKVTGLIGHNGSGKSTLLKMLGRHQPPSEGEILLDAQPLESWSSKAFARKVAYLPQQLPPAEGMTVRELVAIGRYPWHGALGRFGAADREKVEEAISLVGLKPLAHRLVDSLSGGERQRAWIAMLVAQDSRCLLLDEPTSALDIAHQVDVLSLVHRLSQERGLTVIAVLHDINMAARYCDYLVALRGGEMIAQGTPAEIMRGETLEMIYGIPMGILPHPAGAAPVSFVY
T2 sequence (looked up) 2: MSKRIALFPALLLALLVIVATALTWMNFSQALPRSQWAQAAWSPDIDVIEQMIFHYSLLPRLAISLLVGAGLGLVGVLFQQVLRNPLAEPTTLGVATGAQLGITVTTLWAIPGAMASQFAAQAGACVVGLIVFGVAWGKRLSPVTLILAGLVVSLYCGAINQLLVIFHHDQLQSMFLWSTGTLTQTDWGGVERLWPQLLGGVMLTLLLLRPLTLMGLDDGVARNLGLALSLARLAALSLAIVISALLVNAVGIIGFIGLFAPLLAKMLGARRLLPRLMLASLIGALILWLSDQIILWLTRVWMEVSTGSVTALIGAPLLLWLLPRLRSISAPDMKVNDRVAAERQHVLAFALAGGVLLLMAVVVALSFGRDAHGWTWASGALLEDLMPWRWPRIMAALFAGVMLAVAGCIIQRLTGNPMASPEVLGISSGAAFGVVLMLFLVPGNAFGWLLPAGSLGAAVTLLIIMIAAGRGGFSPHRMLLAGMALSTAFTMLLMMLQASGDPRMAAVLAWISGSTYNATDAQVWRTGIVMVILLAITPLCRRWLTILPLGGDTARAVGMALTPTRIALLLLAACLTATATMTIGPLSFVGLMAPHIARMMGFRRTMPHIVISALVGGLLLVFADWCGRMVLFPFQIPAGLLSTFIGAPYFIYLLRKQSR

B1: FhuD (natural protein, Escherichia coli)
chain: AAIDPNRIVALEWLPVELLLALGIVPYGVADTINYRLWVSEPPLPDSVIDVGLRTEPNLELLTEMKPSFMVWSAGYGPSPEMLARIAPGRGFNFSDGKQPLAMARKSLTEMADLLNLQSAAETHLAQYEDFIRSMKPRFVKRGARPLLLTTLIDPRHMLVFGPNSLFQEILDEYGIPNAWQGETNFWGSTAVSIDRLAAYKDVDVLCFDHDNSKDMDALMATPLWQAMPFVRAGRFQRVPAVWFYGATLSAMHFVRVLDNAIGGKA
notes: In 'FhuD-ferrichrome' the protein was loaded with the small molecule ferrichrome; also called FhuD-ferrichrome (when loaded with ferrichrome)
Kd [1]: 270 nM
Kd [2]: 79.2 nM
